Experimental data: patent US20190382493A1 (CYTOMX THERAPEUTICS, published 2019)
Residue numbers refer to the chain shown, from its start.

Legend:
[1] = biological target: T1, human CD28-Fc (R&D Systems) (human, UniProt P10747 19-152); experiment: ELISA, antigen adsorbed
T1 construct: not shown: Fc part of the bought fusion protein; not described
Method: (§1) Bound antibody was visualized with an anti-human IgG-HRP conjugate, Fab specific, (Sigma, St Louis, Mo.; Cat # A0293-1ML) and developed with the chromogenic substrate TMB.

human B7H3 (R&D Systems) = biological target: T2, human B7H3 (R&D Systems) (human, UniProt Q5ZPR3-2 29-245, limits assumed); experiment: ELISA, antigen adsorbed
T2 sequence (looked up): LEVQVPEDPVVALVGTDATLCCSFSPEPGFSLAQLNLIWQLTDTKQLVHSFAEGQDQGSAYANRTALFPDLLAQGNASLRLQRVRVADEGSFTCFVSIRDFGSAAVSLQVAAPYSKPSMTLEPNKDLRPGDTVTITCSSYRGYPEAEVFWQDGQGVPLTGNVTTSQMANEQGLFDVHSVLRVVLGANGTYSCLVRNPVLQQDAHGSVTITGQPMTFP
Method: as §1

[2] = biological target: T3, human B7-1-Fc (R&D Systems) (human, UniProt P33681 35-242); experiment: ELISA, antigen adsorbed
T3 construct: not shown: Fc part of the bought fusion protein; not described
T3 sequence (looked up): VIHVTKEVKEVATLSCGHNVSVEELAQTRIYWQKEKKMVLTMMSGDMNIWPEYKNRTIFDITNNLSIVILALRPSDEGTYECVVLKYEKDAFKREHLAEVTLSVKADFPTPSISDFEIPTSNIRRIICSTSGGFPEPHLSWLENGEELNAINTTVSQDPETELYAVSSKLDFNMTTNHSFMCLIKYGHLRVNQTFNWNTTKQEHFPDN
Method: as §1

[3] = biological target: T4, human PDL1-Fc (R & D Systems) (human, UniProt Q9NZQ7 19-239); experiment: ELISA, PDL1-Fc adsorbed, anti-human IgG (Fab specific)-HRP
T4 construct: Bought reagent; not shown: Fc part of the bought fusion protein; not described
T4 sequence (Q9NZQ7 19-239 limits assumed): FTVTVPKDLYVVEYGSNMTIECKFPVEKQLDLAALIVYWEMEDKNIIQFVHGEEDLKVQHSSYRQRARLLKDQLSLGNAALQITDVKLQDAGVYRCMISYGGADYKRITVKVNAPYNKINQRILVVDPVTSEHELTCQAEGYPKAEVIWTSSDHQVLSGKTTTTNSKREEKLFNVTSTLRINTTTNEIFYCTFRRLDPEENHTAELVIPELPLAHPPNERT
Method: (§2) Bound antibody was visualized with an anti-human IgG-HRP conjugate, Fab specific, (Sigma, St Louis, Mo.; Cat # A0293-1ML) and developed with the chromogenic substrate TMB. […] Table 5 provides the SEQ ID NOs for the nucleic acid sequences and amino acids sequences of the respective variable heavy chains.
as §1

[4] = biological target: T5, mouse PDL1-Fc (R & D Systems) (mouse, UniProt Q9EP73 19-238); experiment: as above
T5 construct: Bought reagent; not shown: Fc part of the bought fusion protein; not described
T5 sequence (Q9EP73 19-238 limits assumed): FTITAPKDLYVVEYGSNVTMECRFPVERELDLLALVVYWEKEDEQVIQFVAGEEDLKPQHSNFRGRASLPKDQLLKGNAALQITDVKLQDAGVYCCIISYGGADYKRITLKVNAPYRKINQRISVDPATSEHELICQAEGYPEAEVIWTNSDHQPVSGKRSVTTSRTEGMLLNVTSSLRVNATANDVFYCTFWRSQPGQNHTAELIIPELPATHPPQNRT
Method: as §2, §1

[5] = biological target: T4, human PDL1-Fc (R & D Systems); experiment: ELISA saturation binding (figure legend)
Method: as §1

[6] = biological target: T4, human PDL1-Fc (R & D Systems); experiment: ELISA saturation binding, PDL1-Fc adsorbed
Method: as §1

[7] = biological target: T5, mouse PDL1-Fc (R & D Systems); experiment: ELISA saturation binding, PDL1-Fc adsorbed
Method: as §1

[8] = biological target: T4, human PDL1-Fc (R & D Systems); experiment: Fab-phage ELISA, antigen adsorbed
Text: (§3) Forty seven (47) individual isolates were chosen from the final pool. […] Briefly, the antigens were adsorbed to the wells of a 96-well ELISA plate, each ligand on a separate plate. Phage were applied to correlative wells on each plate and allowed to bind. Bound phage were visualized with an anti-M13-HRP conjugate and developed with the chromogenic substrate TMB. Based on the results of the ELISA and DNA sequence, 6 unique clones with matured heavy variable CDR3 domains and 10 heavy variable CDR2 domains were chosen for further study. […] Table 4 lists the heavy variable domains encoded by the clones and SEQ ID NOs for the nucleic acid sequences and amino acid sequences of their respective heavy chains.

[9] = biological target: T3, human B7-1-Fc (R&D Systems); experiment: Fab-phage ELISA, antigen adsorbed
Text: as §3

[10] = biological target: T4, human PDL1-Fc (R & D Systems); experiment: ELISA, PDL1 adsorbed
Method: as §1

[11] = biological target: T5, mouse PDL1-Fc (R & D Systems); experiment: ELISA, PDL1 adsorbed
Method: as §1

rat PDL1 = rat PDL1 (rat, UniProt D4AE25 19-239); experiment: ELISA, PDL1 adsorbed
Chain of rat PDL1 (D4AE25 entry or part of it limits assumed, form in doubt): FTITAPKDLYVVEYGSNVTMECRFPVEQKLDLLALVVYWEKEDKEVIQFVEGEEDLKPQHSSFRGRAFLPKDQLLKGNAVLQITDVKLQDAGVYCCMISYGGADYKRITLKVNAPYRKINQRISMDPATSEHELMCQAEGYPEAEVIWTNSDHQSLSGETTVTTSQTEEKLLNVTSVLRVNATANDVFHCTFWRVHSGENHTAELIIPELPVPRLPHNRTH
Method: as §1

[12] = biological target: T6, cynomolgus monkey (cyno) PDL1-Fc (Sino biological) (cynomolgus monkey, UniProt G7PSE7 19-239); experiment: ELISA, PDL1 adsorbed
T6 construct: Bought reagent; not shown: Fc part of the bought fusion protein; not described
T6 sequence (G7PSE7 entry or part of it): as the sequence (Q9NZQ7 19-239 limits assumed) above, with A33T, A34S, S62N, R68Q, Q82R, F173L, T185A, T192I, H215L counted along it
Method: as §1

human PDL1 (R&D Systems) = biological target: T7, human PDL1 (R&D Systems) (human, UniProt Q9NZQ7 19-239); experiment: phage ELISA, antigen adsorbed, anti-M13-HRP
T7 construct: also called hPDL1; recombinant human PDL1 protein
T7 sequence (Q9NZQ7 19-239 limits assumed): as the sequence (Q9NZQ7 19-239 limits assumed) above
Text: (§4) Phage were applied to the plate and allowed to bind. Bound phage were visualized with an anti-M13-HRP conjugate (GE Healthcare, Piscataway, N.Y.) and developed with the chromogenic substrate tetramethyl benzidine (TMB) (Thermo Scientific, Rockford, Ill.).

mouse PDL1 (R&D Systems) [13] = biological target: T8, mouse PDL1 (R&D Systems) (mouse, UniProt Q9EP73 19-238); experiment: phage ELISA, antigen adsorbed, anti-M13-HRP
T8 construct: also called mPDL1; murine PDL1
T8 sequence (Q9EP73 19-238 limits assumed): as the sequence (Q9EP73 19-238 limits assumed) above
Text: as §4

mouse PDL1 (R&D Systems) [14] = biological target: T8, mouse PDL1 (R&D Systems); experiment: phage ELISA on adsorbed mouse PDL1, PD1-Fc as competitor
Text: Bound phage were visualized with an anti-M13-HRP conjugate (GE Healthcare, Piscataway, N.Y.) and developed with the chromogenic substrate tetramethyl benzidine (TMB) (Thermo Scientific, Rockford, Ill.).

B1: anti-PDL1 antibody C5H9 (antibody, V domains shown)
VH: EVQLLESGGGLVQPGGSLRLSCAASGFTFSSYAMSWVRQAPGKGLEWVSSIWRNGIVTVYADSVKGRFTISRDNSKNTLYLQMNSLRAEDTAVYYCAKWSAAFDYWGQGTLVTVSS
VL: DIQMTQSPSSLSASVGDRVTITCRASQSISSYLNWYQQKPGKAPKLLIYYASTLQSGVPSRFSGSGSGTDFTLTISSLQPEDFATYYCQQDNGYPSTFGQGTKVEIKR
notes: Fully human IgG; also called PDL1 C5H9
Q: Does B1 bind [1]?
A: no binding

Q: Does B1 bind (human B7H3 (R&D Systems))?
A: no binding

Q: Does B1 bind [2]?
A: no binding

Q: Does B1 bind [3]?
A: binds

Q: Does B1 bind [4]?
A: binds

B2: fully human anti-PDL1 c60 IgG (antibody, V domains shown)
VH: B1 VH with W52Y, R53S, N54T, I56G, V57A, V59A, W99S, A102G
VL: B1 VL
notes: Fully human IgG with the variable domains of PDL1 c60; also called anti-PDL1 clone 60:IgG
Q: With B2 as the binder, how does the Kd [5] read?
A: ~1 nM

Q: And the Kd [6]?
A: 1 nM

Q: And the Kd [7]?
A: 30 nM

B3: PDL1 h9 Fab-phage (Fab, V domains shown)
VH: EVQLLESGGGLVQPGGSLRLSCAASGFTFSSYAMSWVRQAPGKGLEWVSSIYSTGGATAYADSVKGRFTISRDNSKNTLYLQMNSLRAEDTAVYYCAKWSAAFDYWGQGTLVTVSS
VL: B1 VL
notes: also called CDR3 clone H9
Q: Does B3 bind [8]?
A: binds

Q: Does B3 bind [9]?
A: no binding

B4: anti-PDL1 antibody C5E10 (antibody, V domains shown)
VH: B1 VH with A101K, A102G
VL: B1 VL
notes: Fully human IgG
Q: Does B4 bind [1]?
A: no binding

Q: Does B4 bind [2]?
A: no binding

Q: Does B4 bind [3]?
A: binds

B5: anti-PDL1 antibody C5H9v2 (antibody, V domains shown)
VH: B1 VH
VL: B1 VL with Y50A, T53S, Q100G
notes: IgG; also called anti-PDL1 parental antibody C5H9v2
Q: What does the source list for B5?
A: EC50 [10]: 0.25 nM; EC50 [11]: 0.3 nM; EC50 (rat PDL1): 0.31 nM; EC50 [12]: 0.28 nM

B6: anti-PDL1 antibody G12B10 (antibody, V domains shown)
VH: B1 VH with R53Y, N54Q, I56L, A102G, F103Y
VL: B1 VL
notes: Fully human IgG; also called PDL1 G12B10
Q: Does B6 bind [3]?
A: binds

B7: anti-PDL1 antibody G12E10 (antibody, V domains shown)
VH: B1 VH with R53Y, N54Q, I56L, A101K, A102G
VL: B1 VL
notes: Fully human IgG; also called PDL1 G12E10
Q: Does B7 bind [3]?
A: binds

B8: anti-PDL1 antibody C5B10 (antibody, V domains shown)
VH: B1 VH with A102G, F103Y
VL: B1 VL
notes: Fully human IgG; also called PDL1 C5B10
Q: Does B8 bind [1]?
A: no binding

Q: Does B8 bind [2]?
A: no binding

Q: Does B8 bind [3]?
A: binds

B9: anti-PDL1 antibody G12H9 (antibody, V domains shown)
VH: B1 VH with R53Y, N54Q, I56L
VL: B1 VL
notes: Fully human IgG; also called PDL1 G12H9
Q: Does B9 bind [3]?
A: binds

B10: PDL1 c60 ScFv-phage (scFv)
scFv: EVQLLESGGGLVQPGGSLRLSCAASGFTFSSYAMSWVRQAPGKGLEWVSSIYSTGGATAYADSVKGRFTISRDNSKNTLYLQMNSLRAEDTAVYYCAKSSAGFDYWGQGTLVTVSSGGGGSGGGGSGGGGSTDIQMTQSPSSLSASVGDRVTITCRASQSISSYLNWYQQKPGKAPKLLIYYASTLQSGVPSRFSGSGSGTDFTLTISSLQPEDFATYYCQQDNGYPSTFGQGTKVEIKR
notes: also called clone 60
Q: Does B10 bind (human PDL1 (R&D Systems))?
A: binds

Q: Does B10 bind (mouse PDL1 (R&D Systems) [13])?
A: binds

B11: mouse PD1-Fc (R&D Systems) (Fc fusion, UniProt Q02242 25-167, looked up)
chain: LEVPNGPWRSLTFYPAWLTVSEGANATFTCSLSNWSEDLMLNWNRLSPSNQTEKQAAFCNGLSQPVQDARFQIIQLPNRHDFHMNILDTRRNDSGIYLCGAISLHPKAKIEESPGAELVVTERILETSTRYPSPSPKPEGRFQ
notes: Bought reagent; also called mPD1; not shown: Fc part of the bought fusion protein; not described
Q: Does B11 bind (mouse PDL1 (R&D Systems) [14])?
A: binds
